Three molecules from article PMC9527255, “Structure of the TnsB transposase-DNA complex of type V-K CRISPR-associated transposon” can be followed below.

Series [1] concerns the target Scytonema hofmannii TnsB transposase (type V-K CRISPR-associated transposon) (Scytonema hofmannii (UTEX 2349)). Kind of series: cryo-EM structure; 40 uM shTnsB with 10 uM STC DNA in 50 mM HEPES pH 7.5, 300 mM NaCl, 5 mM MgCl2, 1 mM TCEP, 30 min at 37 C; post-catalytic strand-transfer complex, 2.46 A.
The target is the same in series [2]. Kind of series: SEC-MALS; shTnsB mixed with the reconstituted strand-transfer complex (STC) DNA; the high MW peak at 358.7 kDa holds the STC DNA and shTnsB. On the technique in general: In gel filtration, larger molecules generally elute earlier.
Series [3] addresses T1, shTnsB (Scytonema hofmannii UTEX 2349, UniProt PDB:8AA5_1 1-596).
T1 sequence: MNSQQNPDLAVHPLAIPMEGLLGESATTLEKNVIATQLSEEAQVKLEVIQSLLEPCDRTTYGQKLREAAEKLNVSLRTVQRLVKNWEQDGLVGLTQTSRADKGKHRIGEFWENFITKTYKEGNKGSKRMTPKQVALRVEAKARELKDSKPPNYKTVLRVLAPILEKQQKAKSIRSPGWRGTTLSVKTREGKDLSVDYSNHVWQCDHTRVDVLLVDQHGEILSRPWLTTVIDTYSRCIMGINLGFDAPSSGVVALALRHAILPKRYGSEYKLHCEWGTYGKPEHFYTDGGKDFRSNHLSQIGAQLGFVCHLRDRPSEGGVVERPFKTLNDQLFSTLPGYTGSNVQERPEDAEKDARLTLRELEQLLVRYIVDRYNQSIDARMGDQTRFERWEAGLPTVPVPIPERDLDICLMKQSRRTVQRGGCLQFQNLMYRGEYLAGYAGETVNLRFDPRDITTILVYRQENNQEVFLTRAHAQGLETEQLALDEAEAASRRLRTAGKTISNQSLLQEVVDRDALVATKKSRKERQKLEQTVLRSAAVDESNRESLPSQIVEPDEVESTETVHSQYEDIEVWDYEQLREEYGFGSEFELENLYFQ
In words: cryo-EM structure (2.4 Å); 5 mM MgCl2; TnsB tetramer; 50 mM HEPES pH 7.5, 300 mM NaCl, 5 mM MgCl2, 1 mM TCEP, 37 °C, 30 min; 6% DNA retardation gel. The conditions noted are these: protein: recombinant; tags: C-terminal His6 (TEV treatment, tag removed); chain copies: 4; six strands: 1:2 1:3 (RE arm), 4:5 4:6 (LE arm); the arms pair through the 5 nt target between the insertion sites (1:4); 5' polyA overhangs on strands 2 and 5.

Series [4] concerns the target T1, shTnsB. Kind of series: EMSA; 5 mM MgCl2; four bands, three sites expected; 50 mM HEPES pH 7.5, 300 mM NaCl, 5 mM MgCl2, 1 mM TCEP, 37 °C, 30 min; 6% DNA retardation gel. The settings on record: protein: recombinant; tags: C-terminal His6 (TEV treatment, tag removed); chain copies: 4; blunt. (In general: A gel shift assay detects complexes by their altered migration in electrophoresis.)

With “Scytonema hofmannii TnsB transposase (type V-K CRISPR-associated transposon) (enzyme)”, the stoichiometry N in series [1] and in series [2] was 4 in each case.

B1: STC DNA (RE_Target, RE_polyA, Target_1, LE_Target, LE_polyA, Target_2) (structured_DNA)
DNA 1: ATAAGGATTTTACTGATGACAATAATTTGTCACAACGACATATAATTAGTCACTGTACACGTAGAGACGTAGCAATGCT
DNA 2: AAAAAAAAAAAAAAATGTACAGTGACTAATTATATGTCGTTGTGACAAATTATTGTCATCAGTAAAATCCTTAT
DNA 3: AGCATTGCTACGTCT
DNA 4: AATTAAATAGTCACAATGACATTAATCTGTCACCGACGACAGATAATTTGTCACTGTACACTACGCCTTTTGTGGAGATG
DNA 5: AAAAAAAAAAAAAAATGTACAGTGACAAATTATCTGTCGTCGGTGACAGATTAATGTCATTGTGACTATTTAATT
DNA 6: CATCTCCACAAAAGG
In the case of B1, the binding result in series [3] is listed as “binds”.

B2: LE (dsDNA)
DNA 1: ATTATATTGATGACATTTAATTTGTCATCAATTAATTAAGCAACGCTGATGGGTCACGACGACAATTAAATAGTCACAATGACATTAATCTGTCACCGACGACAGATAATTTGTCACTGTACACTACGCCTTTTGTGG
DNA 2: CCACAAAAGGCGTAGTGTACAGTGACAAATTATCTGTCGTCGGTGACAGATTAATGTCATTGTGACTATTTAATTGTCGTCGTGACCCATCAGCGTTGCTTAATTAATTGATGACAAATTAAATGTCATCAATATAAT
Take B2: the binding result in series [4] is listed as “binds”.
